These sequences were tested against Hck (UniProt P08631) (assay: phosphorylation enrichment, bacterial display (enrichment ratio); higher = better substrate or ligand; peptides without Tyr show the background).
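Further: 11-residue human phosphosite peptides and single-mutation variants displayed on the E. coli surface, counted by deep sequencing, each peptide's frequency after selection divided by its frequency in the unselected input library; frequency after pTyr selection over input frequency; kinase dosed for 20-30% of maximal phosphorylation in three min.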

Sequence of Hck (P08631 whole entry, looked up): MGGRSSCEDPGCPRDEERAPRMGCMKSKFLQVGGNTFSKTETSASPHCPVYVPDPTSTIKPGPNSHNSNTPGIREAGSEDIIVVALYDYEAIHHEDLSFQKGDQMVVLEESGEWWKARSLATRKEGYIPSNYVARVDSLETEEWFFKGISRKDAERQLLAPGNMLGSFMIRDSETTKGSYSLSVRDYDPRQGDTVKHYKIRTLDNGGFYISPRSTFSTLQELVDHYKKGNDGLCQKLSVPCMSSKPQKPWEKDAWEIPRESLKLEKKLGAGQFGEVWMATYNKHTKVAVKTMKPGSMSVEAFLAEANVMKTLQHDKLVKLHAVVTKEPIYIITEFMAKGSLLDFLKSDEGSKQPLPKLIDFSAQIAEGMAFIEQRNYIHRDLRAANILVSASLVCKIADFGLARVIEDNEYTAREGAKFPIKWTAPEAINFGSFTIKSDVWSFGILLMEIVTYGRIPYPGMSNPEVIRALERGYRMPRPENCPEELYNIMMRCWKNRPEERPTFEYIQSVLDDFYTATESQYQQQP

Question: Which phosphorylation enrichment does the source give for NFADPYRQLPF [CTNND2_Y503_Q507P_YF] here?
Answer: 0.659

Question: Which phosphorylation enrichment does the source give for VYAANYYKLLG [ROR2_Y645_D644N] here?
Answer: 1.76

Question: CQAHGYSCQLI [STK11_Y156_F157S] was tested. Which phosphorylation enrichment did it give?
Answer: 0.5

Question: How did the phosphorylation enrichment turn out when GMRHGHGVRQS [JPH2_Y141_Y141H] was run?
Answer: 0.495

Question: LWPIWYSCHRP [MRGPRX1_Y130_R131S] was tested. Which phosphorylation enrichment did it give?
Answer: 0.601

Question: PFFASYPPSPD [GDAP2_Y491_T489A_YF] was tested. Which phosphorylation enrichment did it give?
Answer: 1.11

Question: Which phosphorylation enrichment does the source give for CTTSHYNYMCN [TP53_Y234_I232S] here?
Answer: 0.563

Question: How did the phosphorylation enrichment turn out when YIRRDYEACKA [BBS4_Y48_K46R] was run?
Answer: 0.509

Question: SISYDYCRVPM [BST2_Y8_T4I] was tested. Which phosphorylation enrichment did it give?
Answer: 2.62

Question: For LPHVIYCRLWC [SMAD2_Y128_R133C], which phosphorylation enrichment is on record?
Answer: 6.12

Question: How did the phosphorylation enrichment turn out when LHAAAYWNALA [UQCRC2_Y182_R183W] was run?
Answer: 0.428

Question: With AGADGYGYLAP [FOXL2_Y186] as the sequence, how does the phosphorylation enrichment read?
Answer: 0.468

Question: PVQAAYKKVVA [HBB_Y131_Q132K] was tested. Which phosphorylation enrichment did it give?
Answer: 0.479

Question: How did the phosphorylation enrichment turn out when KVIDMYLMGCF [GABRB2_Y308_A304V] was run?
Answer: 0.608

Question: With LRFDVYGGENE [STOX1_Y610_E608D_YF] as the sequence, how does the phosphorylation enrichment read?
Answer: 0.498

Question: How did the phosphorylation enrichment turn out when DTYDPYLDVAL [USP36_Y268] was run?
Answer: 0.846

Question: With EVVGKYSVHNA [MLH1_Y183_R182K] as the sequence, how does the phosphorylation enrichment read?
Answer: 0.388

Question: For NSIGNYYKPWF [DHCR24_Y299], which phosphorylation enrichment is on record?
Answer: 1

Question: How did the phosphorylation enrichment turn out when PNEAVYTKMMT [G6PD_Y401] was run?
Answer: 1.96

Question: For CTTIHKNFMCN [TP53_Y234_Y234K_YF], which phosphorylation enrichment is on record?
Answer: 0.405

Question: Which phosphorylation enrichment does the source give for QAEELYFGKMG [YES1_Y159_W158L] here?
Answer: 5.82

Question: With ESLRSYDVMDV [KCNQ2_Y562_P561S] as the sequence, how does the phosphorylation enrichment read?
Answer: 0.616

Question: For AIIGIYILRDD [CDH23_Y2949], which phosphorylation enrichment is on record?
Answer: 0.951

Question: For ESLSSYWESAK [APOC2_Y47], which phosphorylation enrichment is on record?
Answer: 0.464

Question: EGDGVYTLNDE [HP_Y125_N129D] was tested. Which phosphorylation enrichment did it give?
Answer: 1.81

Question: With RKVLVYDKLNV [ROR2_Y624_N620K] as the sequence, how does the phosphorylation enrichment read?
Answer: 10.3

Question: With AACQHYGVRTC [NR4A2_Y275] as the sequence, how does the phosphorylation enrichment read?
Answer: 0.421

Question: Which phosphorylation enrichment does the source give for RNFVHYVQGLK [VWF_Y1400_R1399H] here?
Answer: 0.369

Question: How did the phosphorylation enrichment turn out when CLEKEYFDQHF [NPC1_Y394_R389C] was run?
Answer: 0.508

Question: For KPLMPCMRFSR [SMARCE1_Y73_Y73C_YF], which phosphorylation enrichment is on record?
Answer: 0.439

Question: How did the phosphorylation enrichment turn out when SDYYAYSPVQE [H6PD_Y449_R453Q] was run?
Answer: 6.3

Question: Which phosphorylation enrichment does the source give for AAQNCYKVTNG [TPI1_Y105] here?
Answer: 0.408

Question: With RRAVKYLQMVG [AVPR2_Y117_C112R] as the sequence, how does the phosphorylation enrichment read?
Answer: 0.674

What follows are sequences tested against EPHB2 (UniProt P29323) in the same assay as above.
Sequence of EPHB2 (P29323 whole entry, looked up): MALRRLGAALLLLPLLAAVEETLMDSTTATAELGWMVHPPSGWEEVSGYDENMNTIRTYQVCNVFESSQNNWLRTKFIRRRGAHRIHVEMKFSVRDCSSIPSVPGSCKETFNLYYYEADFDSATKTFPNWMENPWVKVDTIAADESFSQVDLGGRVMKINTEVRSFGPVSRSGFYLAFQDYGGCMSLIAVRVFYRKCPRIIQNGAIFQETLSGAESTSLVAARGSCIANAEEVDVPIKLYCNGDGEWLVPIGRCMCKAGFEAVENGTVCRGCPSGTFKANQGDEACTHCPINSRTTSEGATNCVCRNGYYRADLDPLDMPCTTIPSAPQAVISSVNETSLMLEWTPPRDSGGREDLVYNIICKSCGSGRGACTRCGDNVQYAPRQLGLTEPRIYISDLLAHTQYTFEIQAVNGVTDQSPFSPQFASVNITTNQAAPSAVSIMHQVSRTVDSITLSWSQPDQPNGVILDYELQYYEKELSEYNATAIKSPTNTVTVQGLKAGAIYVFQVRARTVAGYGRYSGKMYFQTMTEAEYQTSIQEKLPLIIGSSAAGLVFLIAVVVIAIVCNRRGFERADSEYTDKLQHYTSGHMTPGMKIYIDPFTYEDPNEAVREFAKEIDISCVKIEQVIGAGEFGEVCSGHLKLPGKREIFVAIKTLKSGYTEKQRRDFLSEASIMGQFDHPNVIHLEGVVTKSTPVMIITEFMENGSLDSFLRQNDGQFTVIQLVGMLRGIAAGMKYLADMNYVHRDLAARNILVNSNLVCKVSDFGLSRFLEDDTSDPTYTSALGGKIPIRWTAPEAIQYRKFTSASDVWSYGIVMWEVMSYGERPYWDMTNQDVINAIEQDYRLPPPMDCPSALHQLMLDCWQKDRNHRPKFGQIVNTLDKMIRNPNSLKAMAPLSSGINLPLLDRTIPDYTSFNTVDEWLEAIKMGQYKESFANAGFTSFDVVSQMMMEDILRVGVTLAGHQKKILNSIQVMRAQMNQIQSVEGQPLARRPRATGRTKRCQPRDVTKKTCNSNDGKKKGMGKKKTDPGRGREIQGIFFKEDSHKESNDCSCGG

Question: NFADPYRQLPF [CTNND2_Y503_Q507P_YF] was tested. Which phosphorylation enrichment did it give?
Answer: 0.58

Question: How did the phosphorylation enrichment turn out when VYAANYYKLLG [ROR2_Y645_D644N] was run?
Answer: 2.04

Question: Which phosphorylation enrichment does the source give for CQAHGYSCQLI [STK11_Y156_F157S] here?
Answer: 0.508

Question: Which phosphorylation enrichment does the source give for GMRHGHGVRQS [JPH2_Y141_Y141H] here?
Answer: 0.45

Question: For LWPIWYSCHRP [MRGPRX1_Y130_R131S], which phosphorylation enrichment is on record?
Answer: 0.694

Question: PFFASYPPSPD [GDAP2_Y491_T489A_YF] was tested. Which phosphorylation enrichment did it give?
Answer: 0.865

Question: With CTTSHYNYMCN [TP53_Y234_I232S] as the sequence, how does the phosphorylation enrichment read?
Answer: 0.534

Question: Which phosphorylation enrichment does the source give for YIRRDYEACKA [BBS4_Y48_K46R] here?
Answer: 0.685

Question: For SISYDYCRVPM [BST2_Y8_T4I], which phosphorylation enrichment is on record?
Answer: 9.95

Question: How did the phosphorylation enrichment turn out when LPHVIYCRLWC [SMAD2_Y128_R133C] was run?
Answer: 3.17

Question: Which phosphorylation enrichment does the source give for LHAAAYWNALA [UQCRC2_Y182_R183W] here?
Answer: 0.572

Question: For AGADGYGYLAP [FOXL2_Y186], which phosphorylation enrichment is on record?
Answer: 0.464

Question: Which phosphorylation enrichment does the source give for PVQAAYKKVVA [HBB_Y131_Q132K] here?
Answer: 0.278

Question: For KVIDMYLMGCF [GABRB2_Y308_A304V], which phosphorylation enrichment is on record?
Answer: 0.55

Question: For LRFDVYGGENE [STOX1_Y610_E608D_YF], which phosphorylation enrichment is on record?
Answer: 0.644

Question: How did the phosphorylation enrichment turn out when DTYDPYLDVAL [USP36_Y268] was run?
Answer: 0.776

Question: Which phosphorylation enrichment does the source give for EVVGKYSVHNA [MLH1_Y183_R182K] here?
Answer: 0.363

Question: How did the phosphorylation enrichment turn out when NSIGNYYKPWF [DHCR24_Y299] was run?
Answer: 15.2

Question: PNEAVYTKMMT [G6PD_Y401] was tested. Which phosphorylation enrichment did it give?
Answer: 0.479

Question: For CTTIHKNFMCN [TP53_Y234_Y234K_YF], which phosphorylation enrichment is on record?
Answer: 0.53

Question: Which phosphorylation enrichment does the source give for QAEELYFGKMG [YES1_Y159_W158L] here?
Answer: 0.837

Question: How did the phosphorylation enrichment turn out when ESLRSYDVMDV [KCNQ2_Y562_P561S] was run?
Answer: 0.714

Question: Which phosphorylation enrichment does the source give for AIIGIYILRDD [CDH23_Y2949] here?
Answer: 0.788

Question: Which phosphorylation enrichment does the source give for ESLSSYWESAK [APOC2_Y47] here?
Answer: 0.576

Question: For EGDGVYTLNDE [HP_Y125_N129D], which phosphorylation enrichment is on record?
Answer: 0.727

Question: With RKVLVYDKLNV [ROR2_Y624_N620K] as the sequence, how does the phosphorylation enrichment read?
Answer: 0.794

Question: How did the phosphorylation enrichment turn out when AACQHYGVRTC [NR4A2_Y275] was run?
Answer: 0.412

Question: How did the phosphorylation enrichment turn out when RNFVHYVQGLK [VWF_Y1400_R1399H] was run?
Answer: 0.515

Question: For CLEKEYFDQHF [NPC1_Y394_R389C], which phosphorylation enrichment is on record?
Answer: 0.572

Question: Which phosphorylation enrichment does the source give for KPLMPCMRFSR [SMARCE1_Y73_Y73C_YF] here?
Answer: 0.448

Question: SDYYAYSPVQE [H6PD_Y449_R453Q] was tested. Which phosphorylation enrichment did it give?
Answer: 21.6

Question: For AAQNCYKVTNG [TPI1_Y105], which phosphorylation enrichment is on record?
Answer: 0.421

Question: With RRAVKYLQMVG [AVPR2_Y117_C112R] as the sequence, how does the phosphorylation enrichment read?
Answer: 1.01

Reference: the supplement of paper PMC10065799, “High-throughput profiling of sequence recognition by tyrosine kinases and SH2 domains using bacterial peptide display” (eLife, 2023)
